Results: publication PMC4046702 (Journal of inorganic biochemistry, 2013)

Molecular target: HIF prolyl-4-hydroxylase 2 (PHD2), residues 178-426 (human, UniProt Q9GZT9 178-426)
Test: cell-based or functional assay

HIF prolyl-4-hydroxylase 2 (PHD2), residues 178-426, sequence (Q9GZT9 178-426): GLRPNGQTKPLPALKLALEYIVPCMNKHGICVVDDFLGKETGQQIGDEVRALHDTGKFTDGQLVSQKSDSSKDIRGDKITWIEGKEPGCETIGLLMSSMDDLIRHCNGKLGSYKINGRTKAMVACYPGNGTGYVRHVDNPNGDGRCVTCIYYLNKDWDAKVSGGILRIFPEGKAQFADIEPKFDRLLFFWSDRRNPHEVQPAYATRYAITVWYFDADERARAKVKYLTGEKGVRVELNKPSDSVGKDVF

kcat/KM of NODD hydroxylation by PHD2 (steady-state, MALDI-TOF), 0 NaCl [M⁻¹ s⁻¹]	kcat/KM of NODD hydroxylation by PHD2 (steady-state, MALDI-TOF), + 100 mM NaCl [M⁻¹ s⁻¹]	kcat/KM of CODD hydroxylation by PHD2 (steady-state, MALDI-TOF), 0 mM NaCl [M⁻¹ s⁻¹]	kcat/KM of CODD hydroxylation by PHD2 (steady-state, MALDI-TOF), + 100 mM NaCl [M⁻¹ s⁻¹]	Binder
667	833			DALTLLAPAAGDTIISLDYG [NODD peptide, HIF-1α 395-414 (F413Y)]
		16700	5000	DLDLEALAPYIPADDDFQL [CODD peptide, HIF-1α 556-574 (M561A, M568A)]
